Three molecules from patent US20250304677A1 (VIB VZW, published 2025) can be followed below.

The target in assay [1] is T1, human folate receptor beta (FRβ) (human, UniProt P14207 17-230, limits assumed).
T1 construct: also called hFOLR2; human FOLR2
Nature of the assay: flow cytometry on transiently transfected HEK293T cells, mouse anti-His then anti-mouse-PE (B575-A). From the text: (§1) FIGS. 2A-2C illustrates the epitope mapping of anti-FOLR1 VHHs on human FOLR1/2 chimeras. ^{∘}FIG. 2A) To narrow down the epitope of the anti-folate receptor alpha ^{∘}FOLR1) VHHs, chimeric constructs were generated by exchanging a sequence block in human FOLR1 ^{∘}hFOLR1) by the corresponding human folate receptor beta ^{∘}hFOLR2) sequence, since the VHHs are able to bind both hFOLR1 and mouse FOLR1 ^{∘}mFOLR1; SEQ ID No.97), but not hFOLR2. These regions are indicated by the green arrows. Chimera 1 SEQ ID No. 67) and 7 ^{∘}Ch7; SEQ ID No. 73) also contain an additional residue change at a separate location. […] HEK293T cells were transfected with hFOLR1, hFOLR2, one of the hFOLR1/2 chimeric constructs ^{∘}FIG. 2B) or single residue mutants ^{∘}FIG. 2C). Binding of VHHs 2HFO19, 2HFO42, 3MFR60, and a mouse anti-FOLR1 monoclonal antibody ^{∘}mAb) was detected using a mouse anti-His tag antibody for the VHHs followed by an anti-mouse-phycoerythrin antibody. All VHHs were tested at a concentration of 200 nM and untransfected cells were used as a negative control. The colors used for the VHHs represent the different CDR3 families; blue: family 1, green: family 3, grey: family 10.
(§2) To further narrow down which specific residues might play a role, single residues of human FRα in the chimera 4 region that are not conserved between FRα and FRβ were mutated to their human FRβ counterpart. While all VHHs retained binding to human FRα E140Q SEQ ID No. 77), R147H ^{∘}SEQ ID No. 79), and Y150H ^{∘}SEQ ID No. 80) ^{∘}data not shown), binding was completely abolished when the Q141R mutation ^{∘}SEQ ID No. 78) was introduced ^{∘}FIG. 2C). To verify the role of this residue in the binding of the VHHs, the R135 residue in human FRβ was replaced by glutamine ^{∘}SEQ ID No. 81) and binding of the VHHs was analyzed. […] In addition to having ^{∘}partially) overlapping epitopes, the VHHs thus all require residue Q141 for binding.

The target of the next assay is T2, human FRα Q141R (human, UniProt P15328 25-234).
T2 construct: The entry is the mutant itself
The assay is described as above.
Source text: as §1, §2

Assay [2] deals with T3, human folate receptor alpha (hFRα), recombinant protein (human, UniProt P15328 25-233).
T3 construct: Bought recombinant proteins (His-tagged, or biotinylated via Avi-tag, e.g. AcroBiosystems FO1-H82E2, F01-H52H1); also called hFOLR1; huFOLR1
Nature of the assay: ELISA, periplasmic extract. From the text:
(§3) From the lymphocytes of each llama a separate VHH library was constructed to select and screen for the presence of antigen-specific VHHs. To this end, total RNA from peripheral blood lymphocytes was used as template for first strand cDNA synthesis with an oligo ^{∘}dT) primer. Using this cDNA, the VHH encoding sequences were amplified by PCR, digested with PstI and NotI, cloned into the PstI and NotI sites of the phagemid vector pMECS and transformed into E. coli to generate VHH libraries. To enrich these libraries for FRα ^{∘}or FOLR1, as used interchangeably herein)-specific VHHs, a combinatorial panning approach on recombinant human and mouse FOLR1 was used followed by random selection and screening of clones by ELISA for the presence of antigen-specific VHHs in their periplasmic extracts ^{∘}PEs). In order to gauge the cross-reactivity for human and mouse FOLR1, each clone was tested on both antigens.
(§4) After panning of core76/77 on human and mouse folate receptor alpha ^{∘}FRα), […] were randomly selected from the second and third rounds and analyzed by ELISA on both human and mouse FRα for the presence of FRα-specific VHHs in their periplasmic extracts ^{∘}PE). This led to the identification of 98 hits. For these 98 hits, the off-rate ^{∘}koff) in the PE was determined by biolayer interferometry ^{∘}BLI) on both mouse and human FRα that was directly immobilized onto AR2G biosensors. The off-rates were calculated using a 1:1 binding model. […] Abbreviations: SE: standard error.

In assay [3] the target is T4, mouse folate receptor alpha (mFRα), recombinant protein (mouse, UniProt P35846 25-232).
T4 construct: Bought recombinant proteins (e.g. biotinylated, Acro Biosystems FO1-M82E9); also called mFOLR1; Ms FOLR1
Briefly: ELISA, periplasmic extract.
Source text: as §3, §4

In assay [4] the target is T4, mouse folate receptor alpha (mFRα), …. Briefly: BLI tandem binning on mouse FRα; competitor (1st association) 2HFO42. An excerpt: VHHs that share high sequence identity in the CDR3 region, a VHH family, are derived from the same B-cell lineage and diverged from each other due to somatic hypermutation or affinity maturation. Typically, VHHs from the same family recognize the same epitope on the target, but may differ in other characteristics ^{∘}De Genst et al 2006 PNAS 103:4586-4591; De Gents et al 2005 J Biol Chem 280:14114-14121). To study whether the VHHs from the different families bound different epitopes, epitope binning was performed using a tandem binding approach in BLI. One VHH from each family was allowed to bind to mouse FRα on the biosensor, followed by binding of the second VHH ^{∘}Table 4).
Competition between VHHs from different complementarity determining region ^{∘}CDR) 3 families was assessed in a tandem binding assay using biolayer interferometry ^{∘}BLI). Streptavidin biosensors were loaded with biotinylated mouse FRα ^{∘}Acro Biosystems, Cat.nr. FO1-M82E9), followed by binding of anti-FRα VHHs ^{∘}VHH in first association). The biosensors were then transferred to a solution containing a second VHH mixed 1:1 with the first VHH ^{∘}VHH in second association). Using the FortéBio Data Analysis Software the absolute additional binding signal for the second association on top of the first association was calculated. The data were normalized per VHH in first association using the following formula: ^{∘}signal-self)/^{∘}maximum-self) with self being the value of the VHH in first association in combination with the same VHH in second association.

T3 sequence (P15328 25-233 limits assumed): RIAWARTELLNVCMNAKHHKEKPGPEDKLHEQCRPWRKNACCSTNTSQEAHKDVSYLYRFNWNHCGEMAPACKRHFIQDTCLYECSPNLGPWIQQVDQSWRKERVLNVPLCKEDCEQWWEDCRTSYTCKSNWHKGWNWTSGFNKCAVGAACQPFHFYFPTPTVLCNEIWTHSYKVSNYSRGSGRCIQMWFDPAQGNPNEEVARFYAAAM
T4 sequence (P35846 25-232 limits assumed): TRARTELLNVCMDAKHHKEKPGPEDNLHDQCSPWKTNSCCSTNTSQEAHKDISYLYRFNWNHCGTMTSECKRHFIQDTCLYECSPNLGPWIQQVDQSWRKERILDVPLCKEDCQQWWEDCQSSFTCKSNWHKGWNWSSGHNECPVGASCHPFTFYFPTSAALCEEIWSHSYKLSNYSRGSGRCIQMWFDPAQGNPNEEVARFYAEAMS
T2 sequence (P15328 25-234 Q141R limits assumed): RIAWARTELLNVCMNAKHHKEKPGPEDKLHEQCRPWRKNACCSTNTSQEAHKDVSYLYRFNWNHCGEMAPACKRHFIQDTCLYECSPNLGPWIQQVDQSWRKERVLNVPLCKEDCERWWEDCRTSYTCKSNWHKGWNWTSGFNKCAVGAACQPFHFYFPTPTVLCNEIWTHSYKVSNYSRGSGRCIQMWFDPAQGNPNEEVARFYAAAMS
T1 sequence (P14207 17-230 limits assumed): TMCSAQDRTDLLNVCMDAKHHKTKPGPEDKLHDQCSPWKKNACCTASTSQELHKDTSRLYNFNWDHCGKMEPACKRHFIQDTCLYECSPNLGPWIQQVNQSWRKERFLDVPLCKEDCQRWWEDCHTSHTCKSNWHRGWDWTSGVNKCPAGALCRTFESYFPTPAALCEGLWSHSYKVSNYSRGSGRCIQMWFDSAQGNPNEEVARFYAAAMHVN

B1: VHH 2HFO42 (family 3) (VHH)
VHH: QVQLQESGGGLVQAGGSLRLSCAASGSGFSGMIMGWYRQVPGKQRELVATVTSHGTTNYADSVKGRFTISRDNAKNTVLLQMNSLKPEDTAVYYCNAHFPGIYWGKGTQVTVSS
notes: also called 2HF042; Nb42
As to B1, the binding result (in assay [1]; with human FRα Q141R) was “no binding (tested: 200 nM)” each time. The “PE-ELISA (ratio to uncoated well)” value in assay [2] was determined as 11.7; in assay [3], 12.2. The “normalized additional binding in 2nd association” value (“normalized additional binding” below) in assay [4] stood at 0%.

B2: VHH 2HFO19 (family 1) (VHH)
VHH: QVQLQESGGGLVQPGGSLRVSCAASGFPFSTVYMSWVRQAPGKGLEWVSGINNDGGVIDYADSVKGRFTISRDNAKNTLYLQLNSLKPEDTALYFCARGRSFVATLSSSLRGQGTQVTVSS
notes: also called Nb19
As to B2, the binding result (in assay [1]; in the assay with human FRα Q141R) was “no binding (tested: 200 nM)” throughout. The “PE-ELISA (ratio to uncoated well)” value in assay [2] was determined as 13.8; in assay [3], 14.2. Moreover, the “normalized additional binding” value in assay [4] was 12%.

B3: VHH 3MFR60 (family 10) (VHH)
VHH: QVQLQESGGGLVQAGGSLRVSCAASGIIFSMNGMGWFRQAPGKQRELVASITSGGSTKYADSVKGRFTISRDNAKNTVYLQMNSLKPEDTAVYYCNIQFGSRWSTYWGQGTQVTVSS
Consider B3, for which the binding result (in assay [1]; with human FRα Q141R) was “no binding (tested: 200 nM)” in each case. Also, the figures for the “PE-ELISA (ratio to uncoated well)” value in assay [2] and in assay [3] were 4.8 and 4.9, respectively. For the same molecule, the “normalized additional binding” value in assay [4] came out at 34%.
